The values that follow are results of earlier work, collected in publication PMC4651712.

Usually Kd stands for the constant that tells how readily two partners part at equilibrium.

The target in the data set is PTHR1 (Homo sapiens) (UniProt Q03431).
Sequence of UniProt Q03431 (Q03431 27-593): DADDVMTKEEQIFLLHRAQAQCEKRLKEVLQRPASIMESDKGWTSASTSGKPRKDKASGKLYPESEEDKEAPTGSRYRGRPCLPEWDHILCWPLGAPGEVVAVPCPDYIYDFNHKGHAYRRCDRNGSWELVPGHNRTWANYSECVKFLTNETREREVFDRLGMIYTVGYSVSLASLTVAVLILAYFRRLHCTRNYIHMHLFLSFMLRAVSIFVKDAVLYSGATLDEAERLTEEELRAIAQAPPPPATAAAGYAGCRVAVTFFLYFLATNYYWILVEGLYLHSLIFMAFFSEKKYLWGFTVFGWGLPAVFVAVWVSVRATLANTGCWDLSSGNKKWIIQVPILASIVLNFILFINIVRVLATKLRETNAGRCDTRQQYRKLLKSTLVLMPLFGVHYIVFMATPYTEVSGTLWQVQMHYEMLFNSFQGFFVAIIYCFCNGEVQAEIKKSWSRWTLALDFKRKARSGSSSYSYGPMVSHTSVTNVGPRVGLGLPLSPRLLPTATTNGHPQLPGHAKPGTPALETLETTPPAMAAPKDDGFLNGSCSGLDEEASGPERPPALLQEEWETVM

As for PTH (from UniProt P01270), the Kd is 1 nM.
